According to patent publication US20250043302A1, “MUTATED HYDROXYPHENYLPYRUVATE DIOXYGENASE POLYPEPTIDE, AND CODING GENE AND USE THEREOF” (BEIJING DABEINONG BIOTECHNOLOGY CO., LTD., priority 2021, published 2025):

Columns and labels:
Format in all cases: in vivo
[1] = test system: Arabidopsis thaliana T1 plants; experiment: Topramezone tolerance of transgenic Arabidopsis thaliana T1 plants (spray, bleached leaf area grade, damage score); details: Table 10; for Classification and statistics of the grade of pesticide damage Grade 0: number of plants at grade 0; for Classification and statistics of the grade of pesticide damage Grade 1: number of plants at grade 1; for Classification and statistics of the grade of pesticide damage Grade 2: number of plants at grade 2; for Classification and statistics of the grade of pesticide damage Grade 3: number of plants at grade 3; for Scores: pesticide damage score
How it was run: (§1)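 Damage was assessed by bleaching grade (0 none; 1 <50%; 2 >50%; 3 100% of leaf area) one week after spraying. Sprays on 18-day-old T1 and wild-type plants used field-rate multiples: topramezone 25–200, isoxaflutole 35–280, mesotrione 52.5–420 g ai/ha.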

[2] = test system: Arabidopsis thaliana T1 plants; experiment: Isoxaflutole tolerance of transgenic Arabidopsis thaliana T1 plants (spray, bleached leaf area grade, damage score); details: Table 11; for Classification and statistics of the grade of pesticide damage Grade 0: number of plants at grade 0; for Classification and statistics of the grade of pesticide damage Grade 1: number of plants at grade 1; for Classification and statistics of the grade of pesticide damage Grade 2: number of plants at grade 2; for Classification and statistics of the grade of pesticide damage Grade 3: number of plants at grade 3; for Scores: pesticide damage score;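 for Scores: Weighted damage index from 0 to 100 where higher means more damage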
How it was run: as §1

[3] = test system: Arabidopsis thaliana T1 plants; experiment: Mesotrione tolerance of transgenic Arabidopsis thaliana T1 plants (spray, bleached leaf area grade, damage score); set-up: Scores: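 damage score 0-100 computed as Σ(N×S)/(T×M)×100 over grades 0-3 with higher meaning more damage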; details: Table 12; for Classification and statistics of the grade of pesticide damage Grade 0: number of plants at grade 0; for Classification and statistics of the grade of pesticide damage Grade 1: number of plants at grade 1; for Classification and statistics of the grade of pesticide damage Grade 2: number of plants at grade 2; for Classification and statistics of the grade of pesticide damage Grade 3: number of plants at grade 3; for Scores: pesticide damage score
How it was run: as §1

B1: HPPDm-7-02: nucleotide sequence encoding AsHPPDm-A107-K351N-F372A-F383W with mutated C-terminal; vector DBN11788 (nucleic acid)
DNA: ATGCCACCTACTCCAGCTACAGCTACTGGTGCTGCTGCTGCTGCCGTTACTCCTGAGCACGCTGCCAGGTCATTCCCCAGGGTGGTTCGCGTGAACCCCAGATCTGATAGGTTCCCAGTTCTGAGCTTCCACCATGTTGAGCTGTGGTGCGCTGATGCTGCTTCTGCTGCTGGCAGGTTCTCTTTCGCTCTTGGTGCTCCACTCGCTGCTAGATCTGATCTGTCTACAGGAAATAGCGCTCATGCCTCACTCCTGCTTCGCTCAGGTGCTTTGGCCTTCCTCTTCACCGCTCCATATGCTCCCCCACCTCAGGAGGCTACTGCTGCTGCTACAGCCTCCATTCCAAGCTTCTCAGCTGATGCCGCTAGAACCTTCGCTGCTGCTCATGGACTTGCCGTGAGGTCTGTTGGTGTTCGCGTGGCTGATGCTGCTGAGGCTTTCAGAGTTTCCGTTGCCGGCGGAGCTAGGCCAGCTTTCGCTCCTGCTGATTTGGGACATGGTTTCGGCCTGGCTGAGGTTGAGCTTTACGGTGACGTGGTTCTCCGCTTCGTGTCTTACCCAGATGAGACTGACCTGCCTTTCCTTCCCGGCTTCGAGAGAGTTTCCTCTCCTGGTGCCGTGGATTACGGCCTGACAAGGTTCGACCACGTGGTTGGAAACGTTCCCGAGATGGCTCCAGTGATCGATTACATGAAGGGCTTCCTTGGATTCCATGAGTTCGCCGAGTTCACTGCTGAGGACGTGGGAACCACTGAGTCCGGTTTGAACTCTGTGGTTCTCGCCAACAATTCTGAGGCTGTTTTGCTCCCTCTGAATGAGCCTGTGCATGGAACCAAGAGGAGAAGCCAGATTCAAACTTACCTGGAGTACCACGGTGGCCCTGGAGTTCAGCATATCGCCCTTGCTTCTAATGATGTGTTGCGCACACTCAGAGAGATGCGCGCCAGAACCCCCATGGGAGGTTTCGAGTTCATGGCCCCACCACAGGCTAAGTACTACGAGGGCGTTAGAAGGATTGCTGGAGACGTGTTGAGCGAGGAGCAGATCAATGAGTGCCAAGAGCTGGGTGTTCTTGTGGATAGGGATGACCAGGGCGTTCTGCTTCAAATTGCCACTAAGCCAGTGGGCGACCGCCCTACATTCTGGCTTGAGATGATTCAAAGAATCGGCTGCATGGAGAAGGATGAGGTTGGACAGGAGTACCAAAAGGGCGGATGCGGTGGCTTCGGAAAGGGTAACTTCAGCGAGTTGTTCAAGTCAATCGAGGAGTATGAGAAGACCTTGGAGGCCAAGCAGCTCGTGGGTTGA
modifications: mutated C-terminus; HPPDm-7-02 Nucleotide Sequence
notes: vector DBN11788
Question: B1 was tested. Which Resistance evaluation ([1]; topramezone 100 g ai/ha (4×)) did it give?
Answer: Highly resistant

Question: And the “Classification and statistics of the grade of pesticide damage Grade 0” value ([1]; topramezone 100 g ai/ha (4×))?
Answer: 16

Question: What about the “Classification and statistics of the grade of pesticide damage Grade 1” value ([1]; topramezone 100 g ai/ha (4×)) of the same molecule?
Answer: 0

Question: And the “Classification and statistics of the grade of pesticide damage Grade 2” value ([1]; topramezone 100 g ai/ha (4×))?
Answer: 0

Question: And the “Classification and statistics of the grade of pesticide damage Grade 3” value ([1]; topramezone 100 g ai/ha (4×))?
Answer: 0

Question: And the Scores ([1]; topramezone 100 g ai/ha (4×))?
Answer: 0

Question: What about the Resistance evaluation ([1]; topramezone 200 g ai/ha (8×)) of the same molecule?
Answer: Highly resistant

Question: What about the “Classification and statistics of the grade of pesticide damage Grade 0” value ([1]; topramezone 200 g ai/ha (8×)) of the same molecule?
Answer: 16

Question: What about the “Classification and statistics of the grade of pesticide damage Grade 1” value ([1]; topramezone 200 g ai/ha (8×)) of the same molecule?
Answer: 0

Question: What about the “Classification and statistics of the grade of pesticide damage Grade 2” value ([1]; topramezone 200 g ai/ha (8×)) of the same molecule?
Answer: 0

Question: And the “Classification and statistics of the grade of pesticide damage Grade 3” value ([1]; topramezone 200 g ai/ha (8×))?
Answer: 0

Question: And the Scores ([1]; topramezone 200 g ai/ha (8×))?
Answer: 0

Question: What about the Resistance evaluation ([2]; isoxaflutole 140 g ai/ha (2×)) of the same molecule?
Answer: Highly resistant

Question: What about the “Classification and statistics of the grade of pesticide damage Grade 0” value ([2]; isoxaflutole 140 g ai/ha (2×)) of the same molecule?
Answer: 16

Question: What about the “Classification and statistics of the grade of pesticide damage Grade 1” value ([2]; isoxaflutole 140 g ai/ha (2×)) of the same molecule?
Answer: 0

Question: What about the “Classification and statistics of the grade of pesticide damage Grade 2” value ([2]; isoxaflutole 140 g ai/ha (2×)) of the same molecule?
Answer: 0

Question: And the “Classification and statistics of the grade of pesticide damage Grade 3” value ([2]; isoxaflutole 140 g ai/ha (2×))?
Answer: 0

Question: And the Scores ([2]; isoxaflutole 140 g ai/ha (2×))?
Answer: 0

Question: And the Resistance evaluation ([2]; isoxaflutole 280 g ai/ha (4×))?
Answer: Highly resistant

Question: What about the “Classification and statistics of the grade of pesticide damage Grade 0” value ([2]; isoxaflutole 280 g ai/ha (4×)) of the same molecule?
Answer: 16

Question: What about the “Classification and statistics of the grade of pesticide damage Grade 1” value ([2]; isoxaflutole 280 g ai/ha (4×)) of the same molecule?
Answer: 0

Question: And the “Classification and statistics of the grade of pesticide damage Grade 2” value ([2]; isoxaflutole 280 g ai/ha (4×))?
Answer: 0

Question: And the “Classification and statistics of the grade of pesticide damage Grade 3” value ([2]; isoxaflutole 280 g ai/ha (4×))?
Answer: 0

Question: What about the Scores ([2]; isoxaflutole 280 g ai/ha (4×)) of the same molecule?
Answer: 0

Question: And the Resistance evaluation ([3]; mesotrione 210 g ai/ha (2×))?
Answer: Highly resistant

Question: What about the “Classification and statistics of the grade of pesticide damage Grade 0” value ([3]; mesotrione 210 g ai/ha (2×)) of the same molecule?
Answer: 16

Question: What about the “Classification and statistics of the grade of pesticide damage Grade 1” value ([3]; mesotrione 210 g ai/ha (2×)) of the same molecule?
Answer: 0

Question: What about the “Classification and statistics of the grade of pesticide damage Grade 2” value ([3]; mesotrione 210 g ai/ha (2×)) of the same molecule?
Answer: 0

Question: What about the “Classification and statistics of the grade of pesticide damage Grade 3” value ([3]; mesotrione 210 g ai/ha (2×)) of the same molecule?
Answer: 0

Question: What about the Scores ([3]; mesotrione 210 g ai/ha (2×)) of the same molecule?
Answer: 0

Question: And the Resistance evaluation ([3]; mesotrione 420 g ai/ha (4×))?
Answer: Highly resistant

Question: What about the “Classification and statistics of the grade of pesticide damage Grade 0” value ([3]; mesotrione 420 g ai/ha (4×)) of the same molecule?
Answer: 15

Question: What about the “Classification and statistics of the grade of pesticide damage Grade 1” value ([3]; mesotrione 420 g ai/ha (4×)) of the same molecule?
Answer: 1

Question: What about the “Classification and statistics of the grade of pesticide damage Grade 2” value ([3]; mesotrione 420 g ai/ha (4×)) of the same molecule?
Answer: 0

Question: What about the “Classification and statistics of the grade of pesticide damage Grade 3” value ([3]; mesotrione 420 g ai/ha (4×)) of the same molecule?
Answer: 0

Question: And the Scores ([3]; mesotrione 420 g ai/ha (4×))?
Answer: 2
